From publication PMC4346919, “Structural Analysis of the Complex between Penta-EF-Hand ALG-2 Protein and Sec31A Peptide Reveals a Novel Target Recognition Mechanism of ALG-2” (International Journal of Molecular Sciences, 2015)

T1: GST-fused Sec31A 8-residue peptide P4S (human, P4S)
T1 construct: Sec31A residues 837-844; numbers count on: the 8-residue peptide (N1 = residue 837 of Sec31A)
T1 chain: NPPSPGFI

T2: GST-8 aa-fusion of PLSCR3 (43–50) (UniProt Q9NRY6 43-50)
T2 construct: PLSCR3 residues 43-50; also called PLSCR3 8 aa, encoding 43–50
T2 chain (looked up): PAPAPGFA

B1: GST-fused Sec31A 8-residue peptide P4A (peptide)
chain: NPPAPGFI
notes: Sec31A residues 837-844; numbers count on: the 8-residue peptide (N1 = residue 837 of Sec31A)
B2: GST-fused Sec31A peptide, 13 aa (839–851) (peptide, UniProt O94979 839-851, looked up)
chain: PPPGFIMHGNVNP
notes: also called Sec31A 13 aa, encoding 839–851
B3: biotin-labeled ALG-2 (natural protein, human, UniProt O75340 1-191, looked up)
chain: MAAYSYRPGPGAGPGPAAGAALPDQSFLWNVFQRVDKDRSGVISDTELQQALSNGTWTPFNPVTVRSIISMFDRENKAGVNFSEFTGVWKYITDWQNVFRTYDRDNSGMIDKNELKQALSGFGYRLSDQFHDILIRKFDRQGRGQIAFDDFIQGCIVLQRLTDIFRRYDTDQDGWIQVSYEQYLSMVFSIV
modifications: biotin-labeled
notes: ALG-2 (PDCD6), probe of the far-Western blots; also called bio-ALG-2
B4: GST-fused Sec31A 8-residue peptide P2A (peptide)
chain: NAPPPGFI
notes: as for B1
B5: GST-fused Sec31A 8-residue peptide P5A (peptide)
chain: NPPPAGFI
notes: as for B1
B6: GST-fused Sec31A 8-residue peptide P5L (peptide)
chain: NPPPLGFI
notes: as for B1
B7: GST-fused Sec31A peptide, 13 aa (837–849) (peptide, UniProt O94979 837-849, looked up)
chain: NPPPPGFIMHGNV
notes: Sec31A residues 837-849; also called Sec31A 13 aa, encoding 837–849

Experiments:
Experiment in all cases: far-Western, overlay or dot blot; purified GST-fused peptides resolved by SDS-PAGE, transferred to PVDF membranes and probed with biotin-labeled ALG-2; chemiluminescence, quantified with ImageJ
Settings in all cases: both partners purified
biotin-labeled ALG-2 = target: B3
[1] = target: T1, GST-fused Sec31A 8-residue peptide P4S
[2] = target: T2, GST-8 aa-fusion of PLSCR3 (43–50)

binding result (biotin-labeled ALG-2) | relative binding activity (percent of WT) [1] | FW signal relative to that for Sec31A [2] | Binder
binds | – | – | B1
binds | – | – | B2
– | ~20 % of WT | < 0.0625 of the signal for Sec31A | B3
binds | – | – | B4
binds | – | – | B5
binds | – | – | B6
binds | – | – | B7
